Results taken from patent publication US8637043B2, “Compositions useful as ligands for the formyl peptide receptor like 1 receptor and methods of use thereof” (Chemocentryx, Inc., priority 2001, dated 2014).
Entries after “also recorded” stand apart in the source; their conditions may differ. Marks after values point to notes of the source that are not given here. Ends that are not written are not given here.

What was measured:
human neutrophils = assay: Migration assay (ChemoTx), human neutrophils; format: cell-based; settings: 90 min, 100 nM
Experimental: Migration assays were performed on monocytes and neutrophils. Human monocytes and neutrophils (prepared as in Exampe 2) were harvested and resuspended in chemotaxis medium (CM). The CM consisted of Hank's buffered salt solution (Gibco, Mass.) containing CaCl2 (1 mM) and MgSO4 (1 mM) with added 0.1% BSA (Sigma, St. Louis, Mo.). The assays were performed in 96-well ChemoTx® microplates (Neuroprobe, Mass.). […] After incubation for 90 min (37° C., 100% humidity, 5% CO2), cells were removed from the upper surface of the filter by scraping. Cells that migrated into the lower chamber were quantified using the Quant cell proliferation assay kit (Molecular Probes, Oreg.).
The above peptides were prepared as in previous examples.

human FPRL1 = molecular target: T1, human FPRL1 (Homo sapiens, UniProt P25090); assay: Migration of FPRL1-L1.2 cells; format: cell-based; settings: for migration of FPRL1 expressing cells: FPRL1-L1.2 cells, ChemoTx
T1 construct: Full length cDNA encoding FPRL1 was cloned, using the polymerase chain reaction (PCR), from genomic DNA isolated from undifferentiated HL-60 cells; expressed in transfected cells; linearized FPRL1/pcDNA3.1, electroporation
T1 sequence (P25090 1-351): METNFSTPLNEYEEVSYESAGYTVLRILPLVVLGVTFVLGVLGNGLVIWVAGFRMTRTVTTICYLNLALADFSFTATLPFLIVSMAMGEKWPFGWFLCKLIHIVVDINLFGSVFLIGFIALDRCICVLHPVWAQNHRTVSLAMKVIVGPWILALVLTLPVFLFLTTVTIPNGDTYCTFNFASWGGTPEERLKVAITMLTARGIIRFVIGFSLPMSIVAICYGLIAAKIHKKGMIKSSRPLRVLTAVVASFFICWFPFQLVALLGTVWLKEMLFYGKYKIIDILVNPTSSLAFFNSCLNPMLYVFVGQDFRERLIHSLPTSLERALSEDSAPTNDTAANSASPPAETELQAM
Experimental: Migration assays were performed on monocytes and neutrophils. Human monocytes and neutrophils (prepared as in Exampe 2) were harvested and resuspended in chemotaxis medium (CM). The CM consisted of Hank's buffered salt solution (Gibco, Mass.) containing CaCl2 (1 mM) and MgSO4 (1 mM) with added 0.1% BSA (Sigma, St. Louis, Mo.). The assays were performed in 96-well ChemoTx® microplates (Neuroprobe, Mass.). Leukotactin, MlP-1α and chemokines (CKβ8(1-99), CKβ8(25-99), CKβ8-1(1-116) or CKβ8-1(25-116), prepared as in Example 1) were added to the lower wells (final volume 29 μL), and 20 μL of cell suspension (5×10^6 cells/mL for monocytes; 2.5×10^6 cells/mL for neutrophils) added to the polycarbonate filters (5 μm pore size for monocytes; 3 μm pore size for neutrophils). After incubation for 90 min (37° C., 100% humidity, 5% CO2), cells were removed from the upper surface of the filter by scraping. Cells that migrated into the lower chamber were quantified using the Quant cell proliferation assay kit (Molecular Probes, Oreg.).
The ability of CKβ8-1 (25-116) to elicit the migration of the FPRL1 expressing cells was examined. Test conditions were as in Example 5.
The chemotactic activity of chemokines (CKβ8(1-99) and CKβ8(25-99), SHAAGtides (SEQ ID NO:1 and SEQ ID NO:2) and W peptides 1 and 2 (obtained as in Example 6) on FPRL1-L1.2 cells was determined in migration assays. The chemokines were prepared as in Example 1. The SHAAGtide sequences SEQ ID NO:1 and SEQ ID NO:2 were prepared as in Example 8. FPRL1-L1.2 cells were prepared as in Example 6.
The migration assays were performed in 96-well ChemoTx® microplates (Neuroprobe) using the protocol described in Example 5.

mononuclear cells = assay: Mononuclear cell infiltration into the dermis after intradermal injection; format: in vivo, Rhesus macaques; settings: for cell infiltration, in words: summary of Table 18
Experimental: Different amounts (8, 20, or 60 μg in 100 μl PBS) of different polypeptides (see Table 18) were injected intradermally in Rhesus macaques under anesthesia. Twenty-four and 48 hours later, 6 mm skin punch biopsies were taken using aseptic technique and then bisected. One portion of the biopsy was embedded in OCT compound, flash frozen in liquid nitrogen and stored at −70° C. The other portion was immersed in formalin and embedded in paraffin wax; subsequently, sections cut on a microtome were stained with hematoxylin and eosin and then microscopically examined for cell infiltration into the dermis (Table 18). As a negative control, monkeys were injected with PBS lacking any polypeptides.
Mononuclear cell infiltration was scored on a scale of 0 to 5:0, very mild perivascular mononuclear inflammatory infiltration throughout the dermis; 1, a mild perivascular mononuclear inflammatory infiltrate seen throughout the dermis; 2, a mild/moderate perivascular mononuclear inflammatory infiltrate seen throughout the dermis; 3, a moderate perivascular mononuclear inflammatory infiltrate seen throughout the dermis; 4, an extensive perivascular mononuclear inflammatory infiltrate seen throughout the dermis; 5, a florid perivascular mononuclear inflammatory infiltrate seen throughout the dermis. intermediate scores are indicates, e.g., “⅔” represents a score between 2 and 3.

CCR1 = molecular target: T2, CCR1 (Homo sapiens, UniProt P32246); assay: 125I-MIP-1α binding competition, HEK293-CCR1 cells
T2 construct: full length cDNA encoding CCR1 was cloned by the polymerase chain reaction (PCR) from genomic DNA isolated from human peripheral blood cells; expressed in transfected cells; pcDNA3.1 vector)
T2 sequence (P32246 1-355): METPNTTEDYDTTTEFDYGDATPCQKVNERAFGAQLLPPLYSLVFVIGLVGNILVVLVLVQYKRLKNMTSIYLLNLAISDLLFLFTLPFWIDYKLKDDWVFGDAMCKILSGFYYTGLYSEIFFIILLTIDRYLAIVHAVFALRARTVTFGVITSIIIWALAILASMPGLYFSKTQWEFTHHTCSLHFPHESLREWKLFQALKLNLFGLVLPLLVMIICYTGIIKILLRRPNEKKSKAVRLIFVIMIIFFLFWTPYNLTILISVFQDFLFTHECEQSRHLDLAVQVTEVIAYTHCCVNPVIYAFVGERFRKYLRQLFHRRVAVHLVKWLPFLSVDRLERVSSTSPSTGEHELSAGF
Experimental: The binding characteristics of CCL23 variants was compared in human CCR1 expressing cells. […] Reactions mixtures were aspirated onto PEI-treated GF/B glass filters using a cell harvester (Packard). The filters were washed twice (25 mM HEPES, 500 mM NaCl, 1 mM CaCl2, 5 mM MgCl2, adjusted to pH 7.1). Scintillant (MicroScint-10; 35 μl) was added to dried filters and the filiters counted in a Packard Topcount scintillation counter. Data were analyzed and plotted using Prism software (GraphPad Software, San Diego, Calif.).

[1] = 60 μg intradermally, 24 hours, scale 0 (very mild) to 5 (florid)

Q: With MLWRRKIGPQMTLSHAAG [SEQ ID NO: 1] as the molecule, how does the migration of neutrophils (human neutrophils) read?
A: produced migration

Q: And the “migration of FPRL1 expressing cells” value (human FPRL1)?
A: migrated the transfectants

Q: Which “Mononuclear cell infiltration score” value (mononuclear cells; 8 μg, 24 hours) does the source give for MLWRRKIGPQMTLSHAAY [SEQ ID NO: 6] here?
A: 0

Q: And the “Mononuclear cell infiltration score” value (mononuclear cells; 8 μg, 48 hours)?
A: 0

Q: What about the “Mononuclear cell infiltration score” value (mononuclear cells; 20 μg, 24 hours) of the same molecule?
A: 2*

Q: And the “Mononuclear cell infiltration score” value (mononuclear cells; 20 μg, 48 hours)?
A: 0

Q: And the “Mononuclear cell infiltration score” value (mononuclear cells; [1])?
A: 0

Q: And the “Mononuclear cell infiltration score” value (mononuclear cells; 60 μg, 48 hours)?
A: 0

Q: And the “cell infiltration, in words” value (mononuclear cells)?
A: moderately strong infiltration in one of the two animals

B1: CKβ8-1(25-116): novel NH2-terminal truncated form of CKβ8-1, SEQ ID NO: 16, human recombinant chemokine (protein, listed as Homo sapiens)
chain: MLWRRKIGPQMTLSHAAGFHATSADCCISYTPRSIPCSLLESYFETNSECSKPGVIFLTKKGRRFCANPSDKQVQVCMRMLKLDTRIKTRKN
Q: How did the “IC50 increase of truncated variant versus full-length variant” value (CCR1; HEK293-CCR1) turn out when B1 was run?
A: one fold

Q: And the migration of neutrophils (human neutrophils)?
A: produced migration

Q: And the migration of neutrophils (human neutrophils; listed as CKβ8-1 (25-116))?
A: robust response

Q: What about the “migration of FPRL1 expressing cells” value (human FPRL1) of the same molecule?
A: migrated the transfectants

Q: What about the “migration of FPRL1 expressing cells” value (human FPRL1; listed as CKβ8-1 (25-116)) of the same molecule?
A: migrated in a bell-shaped dose-dependent manner; also recorded: higher than observed with the synthetic peptides WKYMVm and WKYMVM

Q: What about the EC50 (human FPRL1; FPRL1 expressing L1.2 cells, read-out: half-maximal cell migration) of the same molecule?
A: 30 nM

Q: What about the “Mononuclear cell infiltration score” value (mononuclear cells; 20 μg, 24 hours) of the same molecule?
A: 0

Q: And the “Mononuclear cell infiltration score” value (mononuclear cells; 20 μg, 48 hours)?
A: 0

Q: What about the “Mononuclear cell infiltration score” value (mononuclear cells; [1]) of the same molecule?
A: 0

Q: And the “Mononuclear cell infiltration score” value (mononuclear cells; 60 μg, 48 hours)?
A: 0

Q: And the “cell infiltration, in words” value (mononuclear cells)?
A: no infiltration

B2: CKβ8-1(1-116): alternatively spliced form of CKβ8, 116 amino acids, human recombinant chemokine (protein, listed as Homo sapiens)
chain: RVTKDAETEFMMSKLPLENPVLLDMLWRRKIGPQMTLSHAAGFHATSADCCISYTPRSIPCSLLESYFETNSECSKPGVIFLTKKGRRFCANPSDKQVQVCMRMLKLDTRIKTRKN
Q: For B2, which “fold less potency than CKβ8(1-99)” value (CCR1; displacement of bound 125I-MIP-1α from CCR1) is on record?
A: 3-4 fold
